Experimental data reported in publication PMC8113463, “Structural visualization of transcription activated by a multidrug-sensing MerR family regulator” (Nature Communications, 2021).

How the values were obtained:
EcmrR (full length) = target: T1, EcmrR (full length) (Escherichia coli, UniProt A0A8I3B051); assay type: binding; details: second site (site II) in CTD; TPSb+ in site I; 8 mM CHAPSO added before grid preparation; density of the sterol head, relevance of the site left open by the authors
T1 construct: E. coli BL21 Star (DE3); codon-optimised gene; homodimer on promoter DNA with E. coli RNAP-sigma70

EcmrR CTD = target: T2, EcmrR CTD (Escherichia coli, UniProt A0A8I3B051); assay: X-ray crystal structure, […] Å; assay type: binding; details: sites I and II both occupied; detergent of the crystallisation solution, 5 mM
T2 construct: E. coli BL21 Star (DE3)

[1] = target: EcmrR (multidrug-sensing MerR family transcriptional regulator of Escherichia coli), full length, wild type (Escherichia coli); assay: cryo-EM structure
EcmrR [2] = target: T3, EcmrR (UniProt PDB:6XLK_3 1-268); assay: cryo-EM (focused map of spacer DNA subcomplex within RPo); TPSb+, CHAPSO; RNAP present in the particle; Complex assembly: core RNAP:σ70:EcmrR-promoter 1:1.4:2, 5 mM MgCl2, 5 mM TPSb+ Br-, 23 °C 3 h, then (initial transcribing complexes) rNTPs 37 °C 10 min; SEC purified; DNA in 20 mM Tris-HCl pH 7.5, 100 mM KCl, 1 mM TCEP; final SEC buffer not given; details: protein: recombinant; tags: expressed as N-terminal His6-Smt3 fusion; chain copies: 2; pre-melted bubble from non-complementary strand segments, blunt ends
T3 sequence: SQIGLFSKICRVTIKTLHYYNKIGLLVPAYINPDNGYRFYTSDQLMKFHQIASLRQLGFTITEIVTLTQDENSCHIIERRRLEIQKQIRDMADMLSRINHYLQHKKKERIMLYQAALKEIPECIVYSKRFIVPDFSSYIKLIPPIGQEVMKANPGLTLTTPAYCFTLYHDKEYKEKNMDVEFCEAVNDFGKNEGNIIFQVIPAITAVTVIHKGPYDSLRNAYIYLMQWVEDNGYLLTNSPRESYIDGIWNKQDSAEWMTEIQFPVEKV

EcmrR [3] = target: T3, EcmrR; assay: cryo-EM (focused map of spacer DNA subcomplex within RPitc-4nt); TPSb+, CHAPSO; RNAP present in the particle; Complex assembly: core RNAP:σ70:EcmrR-promoter 1:1.4:2, 5 mM MgCl2, 5 mM TPSb+ Br-, 23 °C 3 h, then (initial transcribing complexes) rNTPs 37 °C 10 min; SEC purified; DNA in 20 mM Tris-HCl pH 7.5, 100 mM KCl, 1 mM TCEP; final SEC buffer not given; details: protein: recombinant; tags: expressed as N-terminal His6-Smt3 fusion; chain copies: 2; blunt

C[C@H](CCC(=O)NCCC[N+](C)(C)CC(O)CS(=O)(=O)[O-])[C@H]1CC[C@H]2[C@@H]3[C@H](O)C[C@@H]4C[C@H](O)CC[C@]4(C)[C@H]3C[C@H](O)[C@]12C (some centres unmarked) [CHAPSO, 3-([3-cholamidopropyl]dimethylammonio)-2-hydroxy-1-propanesulfonate]
cryo-EM structure of the complex (EcmrR (full length)): The density likely corresponds to the tetracyclic sterol head of CHAPSO

CCCCCCCCCCCCCCCC[N+](C)(C)C [CTA^+]
X-ray crystal structure, 1.4 Å (EcmrR CTD): wherein both sites are occupied by cetyltrimethylammonium cation (CTA^+)

EcmrR (multidrug-sensing MerR family transcriptional regulator of Escherichia coli), full length, wild type (natural protein)
stoichiometry N [1]: 2

B1: 54-bp heteroduplex promoter scaffold, 19-bp spacer (NT strand DNA-1 / T strand DNA-1) (dsDNA)
DNA 1: GCCTTGACCCTCCCCTAAGGGGAGGGTTTAGATTGTGTGCAGTCTGACGCGGCG
DNA 2: CGCCGCGTCAGACTCGTAGGAATCTAAACCCTCCCCTTAGGGGAGGGTCAAGGC
binding result (EcmrR [2]): binds

B2: 54-bp fully complementary promoter scaffold, 19-bp spacer (NT strand DNA-1 / T strand DNA-2) (dsDNA)
DNA 1: GCCTTGACCCTCCCCTAAGGGGAGGGTTTAGATTGTGTGCAGTCTGACGCGGCG
DNA 2: CGCCGCGTCAGACTGCACACAATCTAAACCCTCCCCTTAGGGGAGGGTCAAGGC
binding result (EcmrR [3]): binds
